Results as given in patent US20200277374A1 (Alector, published 2020).

Columns and labels:
[1] = target: human Siglec-7 expressed on human cells (primary monocytes, dendritic cells, macrophages, NK cells, microglia, U937 cells, human cells of humanized mice) (human) (UniProt Q9Y286); experiment: cell-based or functional assay
[2] = target: human Siglec-7 expressed on human cells (primary monocytes, dendritic cells, macrophages, NK cells, microglia, U937 cells, human cells of humanized mice) (human) (UniProt Q9Y286); experiment: FACS, human primary monocytes; isotype control (background)
[3] = target: human Siglec-7 expressed on human cells (primary monocytes, dendritic cells, macrophages, NK cells, microglia, U937 cells, human cells of humanized mice) (human) (UniProt Q9Y286); experiment: FACS, human primary macrophages; isotype control (background)
[4] = target: human Siglec-7 expressed on human cells (primary monocytes, dendritic cells, macrophages, NK cells, microglia, U937 cells, human cells of humanized mice) (human) (UniProt Q9Y286); experiment: FACS, human primary dendritic cells; isotype control (background)

human Siglec-7 expressed on human cells (primary monocytes, dendritic cells, macrophages, NK cells, microglia, U937 cells, human cells of humanized mice) (human), sequence (Q9Y286 19-467): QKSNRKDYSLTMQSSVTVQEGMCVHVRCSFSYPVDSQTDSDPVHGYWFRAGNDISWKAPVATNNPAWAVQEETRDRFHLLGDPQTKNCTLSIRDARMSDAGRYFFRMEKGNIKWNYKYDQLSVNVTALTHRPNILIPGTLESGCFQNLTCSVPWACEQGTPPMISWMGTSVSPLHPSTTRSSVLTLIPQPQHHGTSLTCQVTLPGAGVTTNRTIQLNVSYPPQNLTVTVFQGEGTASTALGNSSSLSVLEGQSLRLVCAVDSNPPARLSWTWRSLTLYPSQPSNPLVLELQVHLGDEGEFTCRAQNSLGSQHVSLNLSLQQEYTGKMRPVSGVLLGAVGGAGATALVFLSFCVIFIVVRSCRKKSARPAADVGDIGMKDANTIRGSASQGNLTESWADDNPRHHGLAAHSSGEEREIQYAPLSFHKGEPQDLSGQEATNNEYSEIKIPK

Percent Siglec-7 Surface Expression, DCs [1]: 100%
Percent Siglec-7 Surface Expression, Macrophages [1]: 100%
Percent Siglec-7 Surface Expression, Microglia [1]: 84.2%
Percent Siglec-7 Surface Expression, Monocytes [1]: 99.4%
Percent Siglec-7 Surface Expression, NK cells [1]: 101%
Percent Siglec-7 Surface Expression, U937 cells [1]: 99.8%
% Positive [2]: 14%
MFI [2]: 141
% Positive [3]: 35.8%
MFI [3]: 648
% Positive [4]: 4.5%
MFI [4]: 134
Substance: mIgG2a isotype control antibody
